# Measured values from article PMC9187738.
# Experiments:
# [1] = target: mouse mCherry-JUNO (mouse) (UniProt Q9EQF4); test: live imaging-based adhesion molecule (LIAM) assay; BHK cells, non-inducible expression (cytomegalovirus promoter); separately transfected cells mixed in equal amounts 4 h after transfection, incubated 20 h, imaged every 6 min for 12 h at 40x, 37 °C, 5% CO2; read-outs: accumulation at the cell interface and translocation to the opposite cell, % of contacting cell pairs
# hamster JUNO (hamster) [2] = test: as above
# hamster JUNO (hamster) [3] = test: live imaging-based adhesion molecule (LIAM) assay; HEK293T cells expressing IZUMO1 mixed with HEK293T cells expressing JUNO; read-out: accumulation at the interface of the cells, % of contacting cell pairs
# pig JUNO (pig) = test: live imaging-based adhesion molecule (LIAM) assay; BHK cells, non-inducible expression (cytomegalovirus promoter); separately transfected cells mixed in equal amounts 4 h after transfection, incubated 20 h, imaged every 6 min for 12 h at 40x, 37 °C, 5% CO2; read-outs: accumulation at the cell interface and translocation to the opposite cell, % of contacting cell pairs
# human JUNO (human) = human JUNO (human) (UniProt A6ND01); test: as above
# human JUNO (human), sequence (A6ND01 20-228): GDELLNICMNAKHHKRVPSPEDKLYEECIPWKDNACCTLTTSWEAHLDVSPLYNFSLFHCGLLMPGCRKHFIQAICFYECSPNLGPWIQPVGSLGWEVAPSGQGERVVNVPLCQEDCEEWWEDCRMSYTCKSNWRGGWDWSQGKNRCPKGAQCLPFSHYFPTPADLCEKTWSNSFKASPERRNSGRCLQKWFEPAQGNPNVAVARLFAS
# human IZUMO1, sequence (Q8IYV9 22-350): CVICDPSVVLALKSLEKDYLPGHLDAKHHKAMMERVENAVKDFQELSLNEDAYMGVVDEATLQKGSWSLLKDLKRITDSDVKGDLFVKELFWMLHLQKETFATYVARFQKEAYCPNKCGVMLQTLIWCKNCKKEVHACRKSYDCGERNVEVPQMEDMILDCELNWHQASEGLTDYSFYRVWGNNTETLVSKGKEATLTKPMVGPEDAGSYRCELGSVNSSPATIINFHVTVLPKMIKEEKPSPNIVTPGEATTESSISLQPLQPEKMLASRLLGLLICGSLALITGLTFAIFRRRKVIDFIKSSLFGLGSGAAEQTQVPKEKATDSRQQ
# mouse mCherry-JUNO (mouse), sequence (Q9EQF4 20-222): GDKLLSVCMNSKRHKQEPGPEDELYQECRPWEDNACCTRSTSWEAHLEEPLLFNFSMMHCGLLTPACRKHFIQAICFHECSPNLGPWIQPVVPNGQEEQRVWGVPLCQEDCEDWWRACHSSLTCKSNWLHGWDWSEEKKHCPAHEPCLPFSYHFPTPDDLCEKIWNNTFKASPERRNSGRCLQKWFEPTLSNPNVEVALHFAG
IZUMO1 accumulation (% of contacting cell pairs) [1] [%],JUNO accumulation (% of contacting cell pairs) [1] [%],IZUMO1 accumulation (% of contacting cell pairs) (hamster JUNO (hamster) [2]) [%],IZUMO1 translocation (% of contacting cell pairs) (hamster JUNO (hamster) [2]) [%],JUNO accumulation (% of contacting cell pairs) (hamster JUNO (hamster) [2]) [%],JUNO translocation (% of contacting cell pairs) (hamster JUNO (hamster) [2]) [%],IZUMO1 accumulation (% of contacting cell pairs) (hamster JUNO (hamster) [3]) [%],JUNO accumulation (% of contacting cell pairs) (hamster JUNO (hamster) [3]) [%],IZUMO1 accumulation (% of contacting cell pairs) (pig JUNO (pig)) [%],IZUMO1 accumulation (% of contacting cell pairs) (human JUNO (human)) [%],IZUMO1 translocation (% of contacting cell pairs) (human JUNO (human)) [%],JUNO accumulation (% of contacting cell pairs) (human JUNO (human)) [%],JUNO translocation (% of contacting cell pairs) (human JUNO (human)) [%],Substance
33,25,77,44,16,28,,,,,,,,hamster IZUMO1 (natural protein)
,,,,,,9.3,2.8,,,,,,human IZUMO1 (from UniProt Q8IYV9 22-350) (natural protein)
,,13,,7.1,,,,24,48,3.2,49,32,pig IZUMO1 (natural protein)
